Source: patent publication US20130243795A1 (Janssen / Centocor, published 2013)
Positions count from the first letter of the chain named.

T1: Human CD27 ECD truncated (ECD 1-121, cleavage site, His6) (human)
T1 construct: also called human CD27 ECD with His Tag; CD27-His
T1 chain: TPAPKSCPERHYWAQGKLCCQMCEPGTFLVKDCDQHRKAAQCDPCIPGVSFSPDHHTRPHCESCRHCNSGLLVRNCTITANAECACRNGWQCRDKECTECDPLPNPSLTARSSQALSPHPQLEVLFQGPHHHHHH

B1: M694 (antibody, V domains shown)
VH: QVQLVESGGGLVKPGGSLRLSCAASGFTFSSYGMSWIRQAPGKGLEWVSYIDEGGGQTIYPDSVKGRFTISRDNAKNSLYLQMNSLRAEDTAVYYCARHRGNPFDYWGQGTLVTVSS
VL: DIQMTQSPSSLSASVGDRVTITCRASKSVSEGRWSFMHWYQQKPGKAPKLLIYVASRLESGVPSRFSGSGSGTDFTFTISSLQPEDIATYYCQHSRELPWTFGQGTKVEIK
notes: also called single-gene DNA ID 694
B2: M707 (antibody, V domains shown)
VH: B1 VH with Q1E, V5L, K13Q, G33T, I37V, Y50A, E53H, I59L, A75S, S78T
VL: B1 VL with E31H, G32V, V54L, R57N, F77L, I87F
notes: also called single-gene DNA ID 707
B3: M696 (antibody, V domains shown)
VH: B1 VH
VL: B1 VL with E31H, G32V, V54L, R57K
notes: also called single-gene DNA ID 696
B4: M695 (antibody, V domains shown)
VH: B1 VH with G33S, E53A, Q57F
VL: B1 VL
notes: also called single-gene DNA ID 695
B5: M708 (antibody, V domains shown)
VH: EVQLLESGGGLVQPGGSLRLSCAASGFTFSSYTMSWVRQAPGKGLEWVSVIDHGGGSTHYPDSVKGRFTISRDNSKNTLYLQMNSLRAEDTAVYYCARHRGNPFDYWGQGTLVTVSS
VL: B1 VL with E31T, G32S, R33G, W34Y, A55G, E59D, S60Y, F77L, I87F
notes: also called single-gene DNA ID 708
B6: M706 (antibody, V domains shown)
VH: EVQLVQSGAEVKKPGESLKISCKGSGYAFSSSWMNWVRQMPGKGLEWMGRIYAGDADTNYAPSFQGQVTISADKSISTAYLQWSSLKASDTAMYYCARSDYYGDYGFAYWGQGTLVTVSS
VL: DIVMTQSPDSLAVSLGERATINCKASQSVDYAGESFMNWYQQKPGQPPKLLIYAASNLESGVPDRFSGSGSGTDFTLTISSLQAEDVAVYYCQQSNEDPYTFGQGTKLEIK
notes: IgG; subclass not restated; also called H272/L267
B7: M600 (antibody, V domains shown)
VH: B6 VH with A56G, A61S
VL: B6 VL with E34D
notes: IgG; subclass not restated; also called H239/L255
B8: M680 (antibody, V domains shown)
VH: B6 VH with A56G
VL: B6 VL with E34D
notes: IgG; subclass not restated; also called H260/L255
B9: M596 (antibody, V domains shown)
VH: B6 VH with A56G, A61S
VL: B6 VL with E34D, F36W, A54T, Q83L
notes: IgG; subclass not restated (path 1 mAbs were human IgG1/kappa); also called H239/L257
B10: M703 (antibody, V domains shown)
VH: B6 VH with N59A, A61S
VL: B6 VL
notes: IgG; subclass not restated; also called H270/L267
B11: M678 (antibody, V domains shown)
VH: B6 VH with A56G, N59A, A61S
VL: B6 VL with E34D
notes: IgG; subclass not restated; also called H259/L255
B12: M493 (antibody, IgG1, V domains shown)
VH: B1 VH with G33S, E53A, Q57F
VL: B1 VL with E31L, G32D, V54L, R57N
notes: also called H228/L250
B13: M501 (antibody, IgG1, V domains shown)
VH: B1 VH with G33S, Y50H, E53A, Q57R, I59W
VL: B1 VL with E31L, G32D, V54L, R57N
notes: also called H231/L250
B14: M160 (antibody, human IgG4, V domains shown)
VH: QVQLVQSGAEVKKPGASVKVSCKASGYAFSSSWMNWVRQAPGQGLEWMGRIYSGDGDTNYNGKFKGRVTMTRDTSTSTVYMELSSLRSEDTAVYYCARSDYYGDYGFAYWGQGTLVTVSS
VL: DIQMTQSPSSLSASVGDRVTITCKASQSVDYAGDSFMNWYQQKPGKAPKLLIYAASNLESGVPSRFSGSGSGTDFTLTISSLQPEDFATYYCQQSNEDPYTFGQGTKVEIK
notes: also called H196,L219
B15: M158 (antibody, human IgG4, V domains shown)
VH: B14 VH
VL: B14 VL with F36Y
notes: also called H196,L220
B16: M166 (antibody, human IgG4, V domains shown)
VH: B14 VH
VL: B14 VL with G33H, D34E
notes: also called H196,L217
B17: M157 (antibody, human IgG4, V domains shown)
VH: B14 VH with S53Q
VL: B14 VL with F36Y
notes: also called H197,L220
B18: M149 (antibody, human IgG4, V domains shown)
VH: B14 VH with S53P
VL: B14 VL
notes: also called H25,L219
B19: M155 (antibody, human IgG4, V domains shown)
VH: B14 VH with S53P
VL: B14 VL with G33H, D34E
notes: also called H25,L217
B20: M713 (antibody, V domains shown)
VH: B14 VH with G56A, N61A, G62Q
VL: B14 VL with D34E
notes: also called single-gene DNA ID 713
B21: M709 (antibody, V domains shown)
VH: B6 VH with N59A, A61S
VL: B6 VL
notes: also called single-gene DNA ID 709
B22: M710 (antibody, V domains shown)
VH: B6 VH
VL: B6 VL
notes: also called single-gene DNA ID 710
B23: M711 (antibody, V domains shown)
VH: B6 VH with A53S, A61N, P62Q, S63K, Q65K
VL: B14 VL with D34E
notes: also called single-gene DNA ID 711
B24: M69 (antibody, human IgG1, V domains shown)
VH: B6 VH with A53P, A56G, A61S
VL: B6 VL with E34D, F36Y
notes: also called H28/L35; C2177 HFR variant

target: T2, Human CD27 ECD, monomeric soluble (construct limits not stated) (human, UniProt P26842 20-191); assay: Biacore SPR, purified mAb
T2 construct: extracellular domain; target of the Biacore assays; also called monomeric soluble CD27; CD27-His
T2 sequence (P26842 20-191): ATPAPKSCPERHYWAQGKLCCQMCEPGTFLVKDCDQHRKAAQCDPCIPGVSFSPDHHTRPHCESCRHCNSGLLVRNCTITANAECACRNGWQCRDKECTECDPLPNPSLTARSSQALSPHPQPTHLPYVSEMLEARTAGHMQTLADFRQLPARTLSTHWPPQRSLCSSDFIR

| Binder | Kd | koff | kon |
| --- | --- | --- | --- |
| B1 | 0.105 nM | 7.6e-05 s⁻¹ | 480000 M⁻¹ s⁻¹ |
| B2 | 0.213 nM | 0.000124 s⁻¹ | 585000 M⁻¹ s⁻¹ |
| B3 | 0.057 nM | 2.1e-05 s⁻¹ | 370000 M⁻¹ s⁻¹ |
| B4 | 0.202 nM | 0.00017 s⁻¹ | 510000 M⁻¹ s⁻¹ |
| B5 | 0.35 nM | 0.000225 s⁻¹ | 643000 M⁻¹ s⁻¹ |

Target: T1, Human CD27 ECD truncated (ECD 1-121, …)
Assay: ProteOn SPR, culture supernatants

| Binder | Kd |
| --- | --- |
| B6 | 0.013 nM |
| B7 | 0.049 nM |
| B8 | 0.03 nM |
| B9 | 0.025 nM |
| B10 | 0.028 nM |
| B11 | 0.053 nM |

Target: T1, Human CD27 ECD truncated (ECD 1-121, …)
Assay: ELISA signal for binding to CD27, initial small culture supernatants

| Binder | ELISA signal |
| --- | --- |
| B12 | 0.85 |
| B13 | 0.77 |

target: T3, Human CD27, full length on the cell surface (human, UniProt P26842 21-260); assay: cell-based or functional assay
Target sequence in this assay (P26842 21-260 H233R): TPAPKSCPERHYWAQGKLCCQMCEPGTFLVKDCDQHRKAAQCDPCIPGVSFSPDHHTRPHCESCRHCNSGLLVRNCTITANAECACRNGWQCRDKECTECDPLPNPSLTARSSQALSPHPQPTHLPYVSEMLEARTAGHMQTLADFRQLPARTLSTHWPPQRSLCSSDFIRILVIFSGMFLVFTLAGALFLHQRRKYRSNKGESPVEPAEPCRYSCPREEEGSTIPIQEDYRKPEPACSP

| Binder | NF-kB Assay IC50 |
| --- | --- |
| B1 | 0.42 nM |
| B2 | 0.26 nM |
| B3 | 0.33 nM |
| B4 | 0.25 nM |
| B5 | 0.26 nM |

target: T2, Human CD27 ECD, monomeric soluble …; assay: Biacore SPR, purified mAb, CD27-His

| Binder | Kd | koff | kon |
| --- | --- | --- | --- |
| B14 | 0.117 nM | 0.00018 s⁻¹ | 1.6e+06 M⁻¹ s⁻¹ |
| B15 | 0.439 nM | 0.00066 s⁻¹ | 1.5e+06 M⁻¹ s⁻¹ |
| B16 | 0.126 nM | 0.000203 s⁻¹ | 1.62e+06 M⁻¹ s⁻¹ |

target: T3, Human CD27, full length on the cell …; assay: cell-based or functional assay; remark: another data set of the same source
Target sequence in this assay (P26842 21-260 H233R): as above

| Binder | NFkB IC50 |
| --- | --- |
| B12 | 0.014 nM |
| B13 | 0.004 nM |

Target: T1, Human CD27 ECD truncated (ECD 1-121, …)
Assay: ProteOn SPR, culture supernatants
Remark: another data set of the same source

| Binder | fold decrease in KD against the parental mAb M159 |
| --- | --- |
| B14 | 20 fold |
| B17 | 6 fold |
| B18 | 4 fold |
| B19 | 6 fold |
| B15 | 6 fold |
| B16 | 20 fold |

target: T2, Human CD27 ECD, monomeric soluble …; assay: Biacore SPR, purified mAb, CD27 ECD
Description: The eight variant mAbs and the HFR parent were evaluated for their affinity to CD27 ECD by BIAcore and their IC₅₀ in the κβ-reporter assay. Kinetic constants and affinity were measured by BIAcore.

| Binder | Kd |
| --- | --- |
| B12 | 0.145 nM |
| B13 | 0.0742 nM |

Target: T1, Human CD27 ECD truncated (ECD 1-121, …)
Assay: ProteOn SPR, culture supernatants
Remark: another data set of the same source

| Binder | Kd |
| --- | --- |
| B14 | 0.12 nM |
| B17 | 0.39 nM |
| B18 | 0.54 nM |
| B19 | 0.37 nM |
| B15 | 0.36 nM |
| B16 | 0.1 nM |

target: T3, Human CD27, full length on the cell …; assay: cell-based or functional assay; remark: another data set of the same source
Target sequence in this assay (P26842 21-260 H233R): as above

| Binder | NF-kB Assay IC50 |
| --- | --- |
| B20 | 0.296 nM |
| B21 | 0.272 nM |
| B22 | 0.32 nM |
| B23 | 0.258 nM |

target: T2, Human CD27 ECD, monomeric soluble …; assay: Biacore SPR, purified mAb; remark: another data set of the same source

| Binder | Kd | koff | kon |
| --- | --- | --- | --- |
| B20 | 0.056 nM | 1.16e-05 s⁻¹ | 206000 M⁻¹ s⁻¹ |
| B21 | 0.026 nM | 5.89e-05 s⁻¹ | 2.3e+06 M⁻¹ s⁻¹ |
| B22 | 0.019 nM | 4.88e-05 s⁻¹ | 2.55e+06 M⁻¹ s⁻¹ |
| B23 | 0.03 nM | 5.82e-05 s⁻¹ | 1.97e+06 M⁻¹ s⁻¹ |

Target: T1, Human CD27 ECD truncated (ECD 1-121, …)
Assay: ProteOn SPR, purified mAb, CD27-His
Description: Purified mAbs were analyzed for affinity to CD27-His on ProteOn.

| Binder | Kd | koff | kon |
| --- | --- | --- | --- |
| B14 | 0.108 nM | 0.000223 s⁻¹ | 2.07e+06 M⁻¹ s⁻¹ |
| B16 | 0.127 nM | 0.000234 s⁻¹ | 1.84e+06 M⁻¹ s⁻¹ |

Target: T1, Human CD27 ECD truncated (ECD 1-121, …)
Assay: ELISA of culture supernatants; binding to CD27 ECD; signal relative to the parent

| Binder | ELISA signal |
| --- | --- |
| B24 | 1.09 |

Target: T1, Human CD27 ECD truncated (ECD 1-121, …)
Assay: ProteOn SPR; mAb captured via anti-human Fc; CD27 ECD as analyte
Description: The rates of CD27 association and dissociation were measured for each variant. The biosensor surface was prepared by covalently coupling Goat anti-Human IgG (Fc) antibodies to the surface of a GLC chip (BioRad) using the manufacturer instructions for amine-coupling chemistry. Approximately 5,000 RU (response units) of antibody were immobilized. The kinetic experiments were performed at 25° C. in running buffer (PBS, 0.01% P20, 0.01% BSA). 1:3 serial dilutions of human CD27 ECD from, starting at 300 nM were prepared in running buffer. About 350 RU of mAb were captured on each channel of the sensor chip. An isotype-matched antibody control was immobilized in channel 6 and used as a reference surface. Capture of mAb was followed by three minutes injection (association phase) of antigen at 30 uL/min, followed by 10 minutes of buffer flow (dissociation phase). […] Data was processed on the instrument software. Double reference subtraction of the data was performed by subtracting the curves generated by buffer injection from the reference-subtracted curves for analyte injections. Kinetic analysis of the data was performed using 1:1 Langmuir binding model with global fit. The result for each mAb was reported in the format of Kₐ (On-rate), Kd (Off-rate), KD (Equilibrium dissociation constant), and percent activity.

| Binder | Kd |
| --- | --- |
| B24 | 0.77 nM |

target: T3, Human CD27, full length on the cell …; assay: cell-based or functional assay; remark: another data set of the same source

| Binder | NFkB IC50 |
| --- | --- |
| B24 | 0.11 nM |
